Assay results published in patent US20160030544A1 (ISIS INNOVATION, published 2016).

Tests used:
[1] = biological target: T1, fH6-7 (factor H CCP domains 6-7) (UniProt P08603 321-443); assay: SPR, Biacore 3000, protein on CM5 chip, fH6-7 as analyte
T1 construct: domain: fH6-7; Analyte in SPR, 0.5 nM-32 nM
T1 sequence: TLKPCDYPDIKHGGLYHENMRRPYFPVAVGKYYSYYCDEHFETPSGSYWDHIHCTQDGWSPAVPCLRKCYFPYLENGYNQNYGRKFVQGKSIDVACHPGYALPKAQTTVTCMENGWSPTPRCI

[2] = biological target: T2, factor H (fH), full length (human, UniProt P08603 19-1231); assay: ELISA, coated protein, purified full length fH
T2 construct: mature; Far western used normal human serum diluted 1:100 as the source of fH; also called full length fH; purified full length fH
T2 sequence (P08603 19-1231): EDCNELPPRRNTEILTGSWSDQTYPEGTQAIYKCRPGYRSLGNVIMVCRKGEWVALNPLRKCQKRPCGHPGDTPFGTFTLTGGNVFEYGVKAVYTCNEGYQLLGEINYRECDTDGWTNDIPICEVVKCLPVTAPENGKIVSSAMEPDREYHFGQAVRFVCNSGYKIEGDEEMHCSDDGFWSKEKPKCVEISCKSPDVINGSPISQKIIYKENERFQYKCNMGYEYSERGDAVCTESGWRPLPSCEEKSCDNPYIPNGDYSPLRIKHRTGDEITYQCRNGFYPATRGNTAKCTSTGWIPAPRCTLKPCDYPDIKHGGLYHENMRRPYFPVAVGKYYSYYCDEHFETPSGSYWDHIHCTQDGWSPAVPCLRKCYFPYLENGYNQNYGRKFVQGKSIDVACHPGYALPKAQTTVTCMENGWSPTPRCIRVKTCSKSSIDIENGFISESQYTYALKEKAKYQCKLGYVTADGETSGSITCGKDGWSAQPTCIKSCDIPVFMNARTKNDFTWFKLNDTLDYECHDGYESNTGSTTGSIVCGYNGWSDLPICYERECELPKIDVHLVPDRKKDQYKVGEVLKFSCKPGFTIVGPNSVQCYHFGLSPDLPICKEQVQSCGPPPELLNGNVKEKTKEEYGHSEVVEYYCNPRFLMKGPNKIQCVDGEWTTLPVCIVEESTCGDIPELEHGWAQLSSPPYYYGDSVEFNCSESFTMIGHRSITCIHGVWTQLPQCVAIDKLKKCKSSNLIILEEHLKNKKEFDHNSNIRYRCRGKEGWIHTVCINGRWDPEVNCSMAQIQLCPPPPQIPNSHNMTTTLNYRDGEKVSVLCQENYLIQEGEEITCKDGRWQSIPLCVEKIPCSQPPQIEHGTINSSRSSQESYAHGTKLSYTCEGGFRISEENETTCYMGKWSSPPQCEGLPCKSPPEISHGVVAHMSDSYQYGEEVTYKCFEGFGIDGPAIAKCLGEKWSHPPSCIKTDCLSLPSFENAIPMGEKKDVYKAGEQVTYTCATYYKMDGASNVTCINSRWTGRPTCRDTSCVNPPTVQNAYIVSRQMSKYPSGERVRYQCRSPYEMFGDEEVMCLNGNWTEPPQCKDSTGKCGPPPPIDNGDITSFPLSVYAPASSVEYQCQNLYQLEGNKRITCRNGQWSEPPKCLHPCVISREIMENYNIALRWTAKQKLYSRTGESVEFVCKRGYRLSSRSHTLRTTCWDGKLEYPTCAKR

[3] = biological target: T1, fH6-7 (factor H CCP domains 6-7); assay: SPR, Biacore 3000, protein on CM5 chip

B1: Ghfp^M4 (R288H) (other)
chain: DKGLKSLTLEASIPQNGTLTLSAQGAEKTFKAGGKDNSLNTGKLKNDKISRFDFVQKIEVDGQTITLASGEFQIYKQDHSAVVALRIEKINNPDKIDSLINQRSFLVSDLGGEHTAFNQLPDGKAEYHGKAFSSDDADGKLTYTIDFAAKQGHGKIEHLKTPEQNVELASAELKADEKSHAVILGDTRYGGEEKGTYHLALFGDRAQEIAGSATVKIGEKVHEIGIADKQ
notes: Text prints R288H (numbering according to fHbp V1.1 structure)
In the case of B1, the Kd [1] is reported as 16 nM.

B2: Ghfp^M5 (D318G) (other)
chain: DKGLKSLTLEASIPQNGTLTLSAQGAEKTFKAGGKDNSLNTGKLKNDKISRFDFVQKIEVDGQTITLASGEFQIYKQDHSAVVALRIEKINNPDKIDSLINQRSFLVSDLGGEHTAFNQLPDGKAEYHGKAFSSDDADGKLTYTIDFAAKQGHGKIEHLKTPEQNVELASAELKADEKSHAVILGDTRYGGEEKGTYRLALFGDRAQEIAGSATVKIGEKVHEIGIAGKQ
notes: Text prints D318G (fHbp V1.1 structure numbering)
B2: no binding [2]; no binding (tested: fH6-7 0.5 nM-32 nM) [3].

B3: Ghfp^M4-5 (R288H/D318G) (other)
chain: DKGLKSLTLEASIPQNGTLTLSAQGAEKTFKAGGKDNSLNTGKLKNDKISRFDFVQKIEVDGQTITLASGEFQIYKQDHSAVVALRIEKINNPDKIDSLINQRSFLVSDLGGEHTAFNQLPDGKAEYHGKAFSSDDADGKLTYTIDFAAKQGHGKIEHLKTPEQNVELASAELKADEKSHAVILGDTRYGGEEKGTYHLALFGDRAQEIAGSATVKIGEKVHEIGIAGKQ
notes: Text prints R288H/D318G (fHbp V1.1 structure numbering)
In the case of B3, the Kd [1] is reported as 2 nM.
